Target: PKCβII in mouse brain (UniProt P68404)
Sequence (P68404 other isoform, or with tags, fused parts or gaps): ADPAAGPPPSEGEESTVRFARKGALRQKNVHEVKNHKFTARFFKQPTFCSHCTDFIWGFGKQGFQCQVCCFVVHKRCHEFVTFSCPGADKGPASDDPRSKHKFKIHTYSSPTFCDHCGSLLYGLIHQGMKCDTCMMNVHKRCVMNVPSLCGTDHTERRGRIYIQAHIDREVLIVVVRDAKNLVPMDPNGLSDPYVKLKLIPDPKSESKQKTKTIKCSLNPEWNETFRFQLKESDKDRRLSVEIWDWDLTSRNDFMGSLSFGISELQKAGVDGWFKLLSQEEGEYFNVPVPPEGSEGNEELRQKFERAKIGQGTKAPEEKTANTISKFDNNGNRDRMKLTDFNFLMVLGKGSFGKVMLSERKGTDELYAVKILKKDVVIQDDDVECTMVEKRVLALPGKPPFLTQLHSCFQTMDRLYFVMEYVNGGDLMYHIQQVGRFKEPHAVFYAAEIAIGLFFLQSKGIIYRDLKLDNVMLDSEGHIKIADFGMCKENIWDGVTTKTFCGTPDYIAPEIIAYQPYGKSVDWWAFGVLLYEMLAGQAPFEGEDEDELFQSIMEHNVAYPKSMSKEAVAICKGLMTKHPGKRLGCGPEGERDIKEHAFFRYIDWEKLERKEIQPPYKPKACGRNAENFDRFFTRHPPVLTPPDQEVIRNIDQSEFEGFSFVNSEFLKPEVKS

Substance: recombinant human AChE-R, 'readthrough' variant of acetylcholinesterase
- PKC activity in brain homogenates (PKC assay kit, Upstate Biotechnology): Note the elevation of PKC activity in the different brain regions in the AChE-R transgenics as compared to FVB/N controls

— patent US20070065882
